Data on three molecules can be found in patent US20090081197A1 (PALATIN TECHNOLOGIES, published 2009).

Read-outs that look alike come from different tables or passages of the source. Starred links: 1 amine or outer side, 2 acyl side, 3 side chain; linkers in the order of their positions; H or OH if unused. Non-standard residues stand in square brackets, D forms with d. No end group written: not given here. *: point of attachment. Thr(Bzl) = O-benzyl-threonine, C[C@@H](OCc1ccccc1)[C@H](N[*:1])C(=O)[*:2]; Ser(Bzl) = O-benzyl-serine, O=C([C@H](COCc1ccccc1)N[*:1])[*:2]; dPhe(4-Cl) = N[C@H](Cc1ccc(Cl)cc1)C(=O)O; Heptanoyl = CCCCCCC(=O)*; Ahp = NCCCCCCC(=O)O

Test [1] deals with T1, human melanocortin 3 receptor (human, UniProt P41968 1-323).
T1 construct: whole, on cells; also called hMC3-R; MC3-R
Nature of the test: radioligand competition, [I125]-NDP-α-MSH, hMC3-R membranes. (In general: Loss of bound radioactivity is the signal in a displacement assay; it reports binding, not function.)

For test [2], the target named is T2, human melanocortin 4 receptor (human, UniProt P32245 1-332). Nature of the test: cell-based or functional assay.
Test [3] deals with T3, human melanocortin 5 receptor (human, UniProt P33032 1-325).
T3 construct: whole, on cells; also called hMC5-R; MC5-R
The test is described as follows: radioligand competition, [I125]-NDP-α-MSH, hMC5-R membranes.

Test [4] has as its target T2, human melanocortin 4 receptor. The test is described as follows: radioligand competition, [I125]-NDP-α-MSH, hMC4-R membranes.
For test [5] the target is unchanged. The test is described as follows: cell-based or functional assay. This is another data set of the same source.
The target of test [6] is T4, MC1-R of B-16 mouse melanoma cells (mouse, UniProt Q01727 1-315).
T4 construct: whole, on cells; also called B16-F10 (MC1-R)
Nature of the test: radioligand competition, [I125]-NDP-α-MSH, B-16 membranes.

In test [7] the target is T1, human melanocortin 3 receptor. The test is described as follows: radioligand competition, [I125]-NDP-α-MSH, hMC3-R membranes. This is another data set of the same source.
The target of test [8] is T2, human melanocortin 4 receptor. The test is described as follows: cell-based or functional assay. This is another data set of the same source.
Test [9] has the same target. The test is described as follows: radioligand competition, [I125]-NDP-α-MSH, hMC4-R membranes. This is another data set of the same source.
Test [10] concerns the target T4, MC1-R of B-16 mouse melanoma cells. The test is described as follows: radioligand competition, [I125]-NDP-α-MSH, B-16 membranes. The source holds these as a separate data set.
The target in test [11] is T3, human melanocortin 5 receptor. Nature of the test: radioligand competition, [I125]-NDP-α-MSH, hMC5-R membranes. This is another data set of the same source.
The target of test [12] is T1, human melanocortin 3 receptor. The test is described as follows: radioligand competition, [I125]-NDP-α-MSH, hMC3-R membranes. This is another data set of the same source.
The target of test [13] is T2, human melanocortin 4 receptor. Nature of the test: cell-based or functional assay. The source holds these as a separate data set.
The target of test [14] is T3, human melanocortin 5 receptor. Nature of the test: radioligand competition, [I125]-NDP-α-MSH, hMC5-R membranes. The source holds these as a separate data set.
Test [15] addresses T4, MC1-R of B-16 mouse melanoma cells. The test is described as follows: radioligand competition, [I125]-NDP-α-MSH, B-16 membranes. The source holds these as a separate data set.
The target of test [16] is T2, human melanocortin 4 receptor. Nature of the test: radioligand competition, [I125]-NDP-α-MSH, hMC4-R membranes. This is another data set of the same source.

T1 sequence (P41968 whole entry): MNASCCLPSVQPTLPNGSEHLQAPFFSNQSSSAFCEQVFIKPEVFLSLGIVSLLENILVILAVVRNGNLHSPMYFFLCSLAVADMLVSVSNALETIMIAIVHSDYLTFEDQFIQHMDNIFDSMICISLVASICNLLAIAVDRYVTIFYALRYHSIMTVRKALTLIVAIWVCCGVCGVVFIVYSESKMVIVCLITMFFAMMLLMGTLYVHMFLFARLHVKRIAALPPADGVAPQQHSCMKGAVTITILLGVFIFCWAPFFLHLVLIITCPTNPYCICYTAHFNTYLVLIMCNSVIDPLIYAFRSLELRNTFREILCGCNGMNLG
T3 sequence (P33032 whole entry): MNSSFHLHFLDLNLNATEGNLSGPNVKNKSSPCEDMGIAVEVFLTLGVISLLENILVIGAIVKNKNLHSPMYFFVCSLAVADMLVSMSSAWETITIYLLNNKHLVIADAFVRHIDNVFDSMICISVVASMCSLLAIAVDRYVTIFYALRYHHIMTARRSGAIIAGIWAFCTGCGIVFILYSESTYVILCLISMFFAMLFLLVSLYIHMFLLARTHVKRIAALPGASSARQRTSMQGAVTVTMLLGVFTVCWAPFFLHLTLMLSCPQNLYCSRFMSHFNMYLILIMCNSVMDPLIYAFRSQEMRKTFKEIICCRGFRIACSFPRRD
T2 sequence (P32245 whole entry): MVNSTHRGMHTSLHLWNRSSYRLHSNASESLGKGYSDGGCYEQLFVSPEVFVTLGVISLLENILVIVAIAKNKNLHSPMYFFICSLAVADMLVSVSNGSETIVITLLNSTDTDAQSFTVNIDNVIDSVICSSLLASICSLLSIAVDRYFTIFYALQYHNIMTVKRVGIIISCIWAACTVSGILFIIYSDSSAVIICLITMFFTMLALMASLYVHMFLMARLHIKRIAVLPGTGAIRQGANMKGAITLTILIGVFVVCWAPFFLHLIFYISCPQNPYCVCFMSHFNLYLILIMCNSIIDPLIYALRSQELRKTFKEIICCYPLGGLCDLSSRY
T4 sequence (Q01727 whole entry): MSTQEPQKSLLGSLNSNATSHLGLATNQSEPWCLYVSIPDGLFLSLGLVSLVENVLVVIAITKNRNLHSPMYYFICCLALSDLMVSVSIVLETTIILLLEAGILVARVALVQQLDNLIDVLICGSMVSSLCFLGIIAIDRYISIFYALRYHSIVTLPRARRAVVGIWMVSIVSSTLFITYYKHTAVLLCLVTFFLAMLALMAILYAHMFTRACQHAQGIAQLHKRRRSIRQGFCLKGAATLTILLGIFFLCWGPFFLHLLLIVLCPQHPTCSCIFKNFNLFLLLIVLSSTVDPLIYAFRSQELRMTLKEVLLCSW

B1: Heptanoyl-Thr(Bzl)-D-Phe(4-Cl)-Arg-Trp-NH2 (peptide)
peptide: Heptanoyl-[Thr(Bzl)][dPhe(4-Cl)]RW-NH2
SMILES: CCCCCCC(=O)N[C@H](C(=O)N[C@H](Cc1ccc(Cl)cc1)C(=O)N[C@@H](CCCNC(=N)N)C(=O)N[C@@H](Cc1c[nH]c2ccccc12)C(N)=O)[C@@H](C)OCc1ccccc1
notes: also called Compound No. 23
With B1, the Ki was determined as 374 nM in test [1], 292 nM in test [3], 21 nM in test [4] and 747 nM in [6]. Besides, the “EC50 (nM), normal system (cAMP)” value in test [2] was more than 1000 nM. Further, the “intrinsic activity, normal system (cAMP)” value in test [2] worked out at 0.4. Besides, the “EC50 (nM) (cAMP), High Receptor Density System” value (“EC50 (nM) (cAMP)” for short) in test [5] is 184 nM.

B2: NH2-(CH2)6-C(=O)-Ser(Bzl)-D-Phe(4-Cl)-Arg-Trp-Ala-NH2 (peptide)
peptide: [Ahp][Ser(Bzl)][dPhe(4-Cl)]RWA-NH2
modifications: N-terminus assumed
SMILES: C[C@H](NC(=O)[C@H](Cc1c[nH]c2ccccc12)NC(=O)[C@H](CCCNC(=N)N)NC(=O)[C@@H](Cc1ccc(Cl)cc1)NC(=O)[C@H](COCc1ccccc1)NC(=O)CCCCCCN)C(N)=O
notes: also called Compound No. 15
Consider B2, for which the inhibitory constant (Ki) stood at 35 nM in test [7], 2 nM in test [9], 142 nM in test [10] and 112 nM in test [11]. Besides, the “EC50, normal system (cAMP)” value in [2] is more than 1000 nM. In [2], the “intrinsic activity, normal system (cAMP)” value was less than 0.1. Further, the “EC50 (nM) (cAMP)” value in [8] worked out at 55 nM.

B3: NH2-(CH2)6-C(=O)-Ser(Bzl)-D-Phe(4-Cl)-Arg-Trp-Asp-Phe-NH2 (peptide)
peptide: [Ahp][Ser(Bzl)][dPhe(4-Cl)]RWDF-NH2
modifications: N-terminus assumed
SMILES: N=C(N)NCCC[C@H](NC(=O)[C@@H](Cc1ccc(Cl)cc1)NC(=O)[C@H](COCc1ccccc1)NC(=O)CCCCCCN)C(=O)N[C@@H](Cc1c[nH]c2ccccc12)C(=O)N[C@@H](CC(=O)O)C(=O)N[C@@H](Cc1ccccc1)C(N)=O
notes: also called Compound No. 14
Regarding B3, the inhibition constant Ki in test [12] amounted to 76 nM; in [14], 405 nM; in test [15], 242 nM; in [16], 5 nM. Also, in [13], the “EC50 (nM) (cAMP)” value turned out to be 141 nM. Moreover, in test [2], the “EC50, normal system (cAMP)” value came out at 238 nM. For the same molecule, in [2], the “intrinsic activity, normal system (cAMP)” value stood at 0.5.

In general, Ki refers to the equilibrium dissociation constant of an inhibitor or competing ligand from its target. Low readings indicate higher affinity, high ones lower affinity.
